The results in this text go back to the DeepSol protein solubility set.

This data set can be described thus: soluble on expression in E. coli; label from the status in PepcDB or PDB records.
For “MGYVPIKNDYNEAQNKDSQSFLIMGLDNTIERKLGTTRTDAMMVITVNNKTKKITYLSLPRDSFVQIDAKNYQGMQRIEAAYTYDGPTASVNTVEKLLNIPINHYVVFNFLSFIKLIDAVGGIDVNVKQAFDGVTKDGPGSIHFDAGKQHLDGTKALSYARERHSDNDIMRGFRQQEIIQAVEDKLKSGQSIMKIMDIIDSLNGNIQTDVDSNELTHLVKEGLTWTNYDKQQLSFDWRTFSNEGRSMVELYPDSIENVRHQLRVSLNLEKPDERDQDGYVFHTNGEFLYQSDYTVQDEAAEENEMTSINGNTYIGVPGNTQTGPLPSVKTENGFIKLEHHHHHH”, the “soluble on expression in E. coli” value was “soluble”.
As for “MENHDLVIVGGGISGLQAAISAKKSGVQDIVLIEAEDSLGGILNQCIYTGFGMEDFKEELTGTEYVQRFIDEFLELNIEYKLNTTVIKISKNKVITAVSPNEGIIEIKACSIIFAAGAVEKPQKSIRVLTKDLSGIYSALTVGRFINIHGYMPGKSIVILGANKIGNALANRIFIEGGKVKAVIDSEVGFDERNEIIEFLAEINIPFLYNYNIVKIKGSERIEGIYISDENGEKFISCDTLILALKLNPNDKILREANIKILNKERNEINTNVPGVFIVGNALYIHESNEGSPLENRKAGEMSAEYIRATLLEHHHHHH”, the “soluble on expression in E. coli” value was “not soluble”.
As for “ELEPGAFSELYQRYRHCDAPICLYEQGRDSFEDEGRWRLILCATCGSHGTHRDCSSLRPNSKKWECNECLPA”, the “soluble on expression in E. coli” value is “soluble”.
As for ELYSALANKCCHVGCTKRSLARFC, the “soluble on expression in E. coli” value is listed as “soluble”.
Next, “MSLKPLSSPLQQYWQTVVERLPEPLAEESLSAQAKSVLTFSDFVQDSVIAHPEWLTELESQPPQADEWQHYAAWLQEALCNVSDEAGLMRELRLFRRRIMVRIAWAQTLALVTEESILQQLSYLAETLIVAARDWLYDACCREWGTPCNAQGEAQPLLILGMGKLGGGELNFSSDIDLIFAWPEHGCTQGGRRELDNAQFFTRMGQRLIKVLDQPTQDGFVYRVDMRLRPFGESGPLVLSFAALEDYYQEQGRDWERYAMVKARIMGDSEGVYANELRAMLRPFVFRRYIDFSVIQSLRNMKGMIAREVRRRGLTDNIKLGAGGIREIEFIVQVFQLIRGGREPSLQSRSLLPTLSAIAELHLLSENDAEQLRVAYLFLRRLENLLQSINDEQTQTLPSDELNRARLAWAMDFADWPQLTGALTAHMTNVRRVFNELIGDDESETQEESLSEQWRELWQDALQEDDTTPVLAHLSEDDRKQVLTLIADFRKELDKRTIGPRGRQVLDHLMPHLLSDVCAREDAAVLSRITALLVGIVTRTTYLELLSEFPAALKHLISLCAASPMIASQLARYPLLLDELLDPNTLYQPTATDAYRDELRQYLLRVPEDDEEQQLEALRQFKQAPVLRIAAADIAGTLPVMKVSDHLTWLAEAMIDAVVQQAWVQMVARYGKPNHLNEREGRGFAVVGYGKLGGWELGYSSDLDLIFLHDCPMDAMTDGEREIDGRQFYLRLAQRIMHLFSTRTSSGILYEVDARLRPSGAAGMLVTSAEAFADYQKNEAWTWEHQALVRARVVYGDPQLTAHFDAVRREIMTLPREGKTLQTEVREMREKMRAHLGNKHRDRFDIKADEGGITDIEFITQYLVLRYAHEKPKLTRWSDNVRILELLAQNDIMEEQEAMALTRAYTTLRDELHHLALQELPGHVSEDCFTAERELVRASWQKWLVEEEGHHHHHH”: “soluble”; “MRFIADLVHEKKQLVEKAEAILNEAEKAGGSLTKEQEQQFNRYKDRITRINDSIDEELSKIRTSEPILNMPHNPMAREDVSKIPVTKAISKSFRGMFYGNETVSLSNNGFHSMDEFLRTLHSGRADNRLINASMVEGIPEFGGYSVPEEYGAFLMDKSLENEIIRPRATVWAMGSETKKVSAFDGADRTNHLFGGISGEWLEEGQTGTRKTAKLRLIQLKAKKLACFSQASNELIADGMSFEEMLAGALIKGLGWYMDYAFINGTGEGQPLGIINDPALITVNKEASQEPATITYQNVVNMFSRLAPSCFTNAVWLANPSVIPQLLTMTITIGTGGAQIPVFREESGKFTLLGKEVLFTEKCPTLGAKGDLILADLSQYAIGMRKEIALDRSNVPGWMEDMTDYRVIVRVDGQGTWDKPITPKNGATLSWAVALEAR”: “soluble”.
For “MRTRSGSAEFSGPLRSVAILAQEKLGDCVLLTPLVRNLRQAFPDLEIHLITFSRASANFFMNDPQVTAVHLVKKQPRRYFREVLSRKFDLLFNTKDHPSTWFLLQSALIRARFKVGHNNPFHEGLYDRLLDTEFHAHMAVKNCALLPLLGVTADTEACRPSLEHHHHHH” the value was “soluble”; for “MGTILDKIVNQKKKEVAALYETYTPVKEKRKTRSLVKALEQFTVIAEVKRASPSKGDINLHVDVRKQVKTYEECGAGAVSVLTDGQFFKGSFYDLQTAREESSIPLLCKDFIIDKIQIDRAYEAGADIILLIVAALTKEKLKELYSYVLEKGLEAIVEVHDEQELEIAIQLNPHVIGINNRNLKTFEVDLSQTEKLGKRLNEEKLLWISESGIHSKEDIIRVKRAGAKGVLVGEALMTSSSIHTFFEDCKVNI”, “not soluble”; for “MGSDKIHHHHHHMACGRMYHFNVFAYGVEEILREVSKKGTESDIRLYNRKEEDGVMTFIEPIKYPDKVSSLTDSIYPTDLFIINGENLDKYFAETVIALDLFGKTRGIIVASEDKQSTIRKLLKDTNIQPEFFSGRPMEIIDRIKAFKIERNEQDTLVVIDHYFKVKSVGTVILGFVLSGKIRKHQDLYLSGINREVQVRSIQVNDVDFDEAEAGTRVGVALKNVEVEELSRGMFLAEKPFEYTNQVKDSVVFHKSLKGRDTMSDPYISDLMNFVKCNPEGDAYTTRFKLPLLKDSFVMADQNGFPRVVGYSKVKR”, “not soluble”.
On to “MNGMCWIASYPKAGGHWLRCMLTSYVTGEPVETWPGIQAGVPHLEGLLRDGEAPSADPDEQVLLATHFTADRPVLRFYRESTAKVVCLIRNPRDAMLSLMRMKGIPPEDVEACRKIAETFIADEGFSSVRIWAGEGSWPENIRSWTDSVHESFPNAAVLAVRYEDLRKDPEGELWKVVDFLELGGRDGVADAVANCTLERMREMEERSKLLGLETTGLMTRGGKQLPFVGKGGQRKSLKFMGDDIEKAYADLLHGETDFAHYARLYGYAE”, for which the “soluble on expression in E. coli” value is “soluble”.
Turning to “MGSDKIHHHHHHMMKLSTMKKVVATVDKKWRSPLAEFILERWGFDRHSVFYWRASANFIFMFQHHGKKYYLRFNDSCERNLTLIKEELKLVQYLGSQALAIAQPVLSKNNNLVEVVITPIGTFYAVVFEALDGEHLSFEEMNEEQLFLWGEMLGTIHENLKNVPNDLAIKRPSWKDDLEKVKEWIPSNEIAAMKELEMISEWADQLPITKENFGIIHYDFELDNVRFNEITIGALDFDDCAYYWYVADIVYALRDAGKFRVTTPAIKTFIKGYKSSTFLEEELLEEANGFERLHHLVSFARLLRSVDKDYSKEEPGYLMDLRKNLVSLINNYRLSFEQNHK”, the “soluble on expression in E. coli” value is “not soluble”.
For “MSNDLTQITQRSLDEQVIGNLNRLQEQGLEMPPGYSPQNALKSAFFELTNNSGGNLLQLAANNPETKTSISNALLDMVIQGLSPAKKQCYFIKYGNKVQLMRSYFGTMAVLDRVTGGADITPVVVREGDVFEIAMDGPDLVVAKHETAFENLDNDIKAAYVVIKLANGKEVTTVMTKKQIDKSWSKAKTKNVQNDFPEEMAKRTVINRAAKYLINTSNDNDLFVQAAKDTLENEFERKDVTPEREEQAAVLEEKLFSNNIKAVDQENENERITRVADVPEQPDIEQAKPIEKDNLTKVADQILEEPVQETLDVMAGYETNQKESEADVSTIEEDDYPF”, the “soluble on expression in E. coli” value is given as “not soluble”.
As to “MGSFQAVAPTRLYRMIADQIAGRIRAGDFPAGGRLPAERELAEQLQVSRASVREALIALEIEGYVEVRVGTGVFVAAPRADGDYGVAPAPQPGHTDIGPFDLLDTRLLLEPECASLAAQKASPAQIAAISSAHAAMSLSDSPGAHDQAFHGAIAAACGNAALAAAISHIWHLSATSPVFSRLEQHFVTTKVWEAAEREHERILAAIVDRDPIRARHAMHDHLVGILARLREDFGSGAIR”, the “soluble on expression in E. coli” value is recorded as “not soluble”.
For “MDKALTNHVIILSFDCLSALDFPILQKLPHFQSLIKKGTVVEKVEPIYPSVTYPSHSTIVTGNYPNKHGVVSNTLLQPGRESPDWHWYRKSIKGTTLYDEARKANLTTAALLWPVTGRANIDYNLPEIFPNRPWQNQVLVSLFSGSPLYQLDLNRRFGHIRNGLSQPELDDFVLASAVHTIQTKKPNIMFVHFTDLDTQRHYHGFESNETIAAIQRHDERLGKIIQALKESDLYEESTIIALGDHSALSENKSIQLNVLFHQRGLISLNKKRKLVDWKAYCQSCDGSAYVYVKDKNDTDTIREVQLLLEELLQNKQNGIEFILHDEAAKDCGADGNCLFMLEAREGYYFTENYTGDFIKEITEKDVTLSKKYTFGTHGYSPTKPNYETIFIAAGKGIKSGVTVPYMRLIDEGPTIARLLGLHLGETDGAIVEDLLQLLEHHHHHH” the value was “soluble”; for “GSSGSSGYQPTYNPTLPYKRPIPGGLSVGMSVYIQGMAKENMRRFHVNFAVGQDDGADVAFHFNPRFDGWDKVVFNTMQSGQWGKEEKKKSMPFQKGKHFELVFMVMPEHYKVVVNGNSFYEYGHRLPVQMVTHLQVDGDLELQSINFLGGQPAAAPY”, “soluble”; for “DNYNVEGASASFAVGYERGVKQLAEGLLLSIYAELDWAAFRSVSDKRSLPFSDDSAQNRFRFLAGAGVHKRLNPNIELYARGAVGASFFPENNGSSSRELKGGFNVSLRVGLSCSLRDNFAVFIDTGTSDIVRGGLALMW”, “not soluble”.
Turning to “APTLISLLEVIEPEVLYSGYDSTLPDTSTRLMSTLNRLGGRQVVSAVKWAKALPGFRNLHLDDQMTLLQYSWMSLMAFSLGWRSYKQSNGNMLCFAPDLVINEERMQLPYMYDQCQQMLKISSEFVRLQVSYDEYLCMKVLLLLSTVPKDGLKSQAVFDEIRMTYIKELGKAIVKREGNSSQNWQRFYQLTKLLDSMHEMVGGLLQFCFYTFVNKSLSVEFPEMLAEIISNQLPKFKAGSVKPLLFHQK”, the “soluble on expression in E. coli” value is reported as “soluble”.
For “MGSDKIHHHHHHMQGDKHRRRVPFASRAEAHARYGAILTEANRHGAQVVLATLAELGRLDLFFLLVVLLKRKDADNDWCFARCREVAASPDGHLDLWAREHYKSTIITFALTIQDILCTPDITVGIFSHSRPGAKAFLQQIKREFEENPVLRAAYPDVLWDNPRTDAPQWSLDGGIVVKRASNPKEATVEAWGLVDGQPIGKHFSLLVYDDVVTPESVTTPDQIRKTTDALAVSYNLGAHGGRRRFIGTRYHFSDTYKDILDRETAVPRIYPATVDGSVTGLPHFLSPEALAAKRRDMGPYIFGCQMLQNPKADDAAGFKAEWLRYWEPSRDLCERMNRYIIVDPAHSKKAAADYTVMWVVGFGADGYRYVIEGVRDRLNLAERTRELFRLVRAHRPLCVGYERYGLQADVEHIRGEQDRTGYHFDIVELGGAMPKADRIRRLVPLFEQGRIFLPGRMSYRDVEGRWRDLTGEFVQEEYLAFPVCGHDDMLDCLARQVDEALGAVFPDEDDYAASVGGMPNDPHAGALTSLGFDDYDPLGHMRASS” the value was “not soluble”.
For “SALSSAASLLGSPLTNDFAVISMSDLLTPLDTIMKRVEAFAKADIVTVIYNPRGSRFPDNIRKAVDIFLRYRNPETAVGIVRNAYRERQSVTITTLSNLNIEDIDMLTTVIIGNSETF” the value was “not soluble”.
For “MFFAIILLVHTILLPSTLLYQCATAKRPANQRKSQRSTKSRKSSRRSRRRNGRSRKSSRSGKSSRSSKSGRSSKSSNSTKTTGSKSSKSSRSQRSNKSNKMVTNPKGFSDRKIRAAILADQKAAADAVKSQKLSSNNSSEKQLNAHNDNKISYVNVRVIPHELIFPPIGGMKHVRVKNSTGKPIAYMAKCSDNILFRINPVYGIIDTDRDAQINILRENGAAKHDKLVIVTTVHHDANKTAQHTFSQLNQGIENPNYNVNVVPLLTQ” the value was “soluble”.
